Results reported in publication PMC5863699, “Sensing iron availability via the fragile [4Fe–4S] cluster of the bacterial transcriptional repressor RirA† †Electronic supplementary information (ESI) available. See DOI: 10.1039/c7sc02801f” (Chemical Science, 2017).

Target: the molecule itself
Test: native MS; ESI-MS under non-denaturing conditions, positive ion mode; cluster-reconstituted [4Fe–4S] RirA, ~30 μM in cluster, 250 mM ammonium acetate pH 7.3; monomer to dimer

B1: Rhizobial iron regulator A (RirA) from Rhizobium leguminosarum (natural protein, UniProt Q9AE46 1-160, looked up)
chain: MRLTKQTNYAVRMLMYCAANDGHLSRIPEIAKAYGVSELFLFKILQPLNKAGLVETVRGRNGGVRLGKPAADISLFDVVRVTEDSFAMAECFEDDGEVECPLVDSCGLNSALRKALNAFFAVLSEYSIDDLVKARPQINFLLGITGEPAYRKPAIVAPAA
notes: RirA, Rhizobium leguminosarum strain 8401 (pRL1JI), rirA gene CAC35510, codon-optimised for E. coli; calculated mass of the monomer 17.4 kDa (apo predicted 17 442 Da, observed 17 441 Da); No tag is mentioned; It carries an iron–sulfur cluster as cofactor: [4Fe–4S] after reconstitution, and mainly [2Fe–2S] after 1 mM EDTA for 2.5 h; Less than 5% of the preparation was truncated, lacking 20 …
stoichiometry N: 2
